Measured values as given in paper PMC9844538 (Nature chemical biology, 2022).

Target: MtbGyrBAcore(Y129F) (Mycobacterium tuberculosis, UniProt P9WG45 426-675+P9WG47:2-500, Y129F;internal_change)
Test: X-ray crystallography

GGCCCTACGGCTGAAAGCCGTAGGGCCCTACGGCTGAAAGCCGTAG (structured_DNA) [singly nicked duplex with GAA triloop ends]: binds.
